Measured values reported in patent US20240327535A1 (EISAI R AND D MANAGEMENT, published 2024).
Substitutions are numbered along the chain they refer to. In names and notes the source's numbering stands.

T1: extracellular domain of human BCMA (human, UniProt Q02223 1-54)
T1 construct: amine-linked to Octet AR2G tips; also called hsBCMA; BCMA (human)
T1 sequence: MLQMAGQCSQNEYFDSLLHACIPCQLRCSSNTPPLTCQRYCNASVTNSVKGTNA

B1: AB200-(2Vk31)_R2-CDR2-hs-v1 (Fab, V domains shown)
VH: QVQLVQSGAEVKKPGSSVKVSCKASGGTFTNYWIHWVRQAPGQGLEWMGGIIPIFGTANYAQKFQGRVTITADKSTSTAYMELSSLRSEDTAVYYCARGAIFHGYDVIDNWGQGTLVTVSS
VL: DIQMTQSPSSLSASVGDRVTITCRASQSISSYLNWYQQKPGKAPKLLIYATSNLQIGVPSRFSGSGSGTDFTLTISSLQPEDFATYYCQQFRRLPWTFGQGTKLEIKR
B2: AB200-(2Vk31)_R2-CDR2-hs-v3 (Fab, V domains shown)
VH: B1 VH with I101V, F102Y
VL: B1 VL
B3: AB200-(2Vk31)_R2-VH-v18 (Fab, V domains shown)
VH: QVQLVQSGAEVKKPGSSVKVSCKASGGSFSNYWIHWVRQAPGQGLEWMGATYRSHSDTYYAEKFKSRVTITADKSTSTAYMELSSLRSEDTAVYYCARGAVYHGYDVIDNWGQGTLVTVSS
VL: B1 VL
B4: AB200-(2Vk31)_R2-VH-v33 (Fab, V domains shown)
VH: B3 VH with S28T, Y59N, A61N, V101I, D109E
VL: B1 VL
B5: AB200-(2Vk31)_R2-CDR1-hs-v3 (Fab, V domains shown)
VH: B3 VH with S28T, N31S, W33A, H35S, H55Q, A61N, E62Q, F64Y
VL: B1 VL
B6: AB200-(2Vk31)_R2-VH-v5 (Fab, V domains shown)
VH: B3 VH with S28T, S30T, A50G, A61N, V101I, Y102F
VL: B1 VL
B7: AB200-(2Vk31)_R2-VH-v29 (Fab, V domains shown)
VH: B3 VH with S28T, D57T, A61N, V101I, Y105F
VL: B1 VL
B8: AB200-(2Vk31)_R2-VH-v12 (Fab, V domains shown)
VH: B3 VH with S28T, F29Y, D57T, A61N, E62Q, F64Y, V101I, Y105F
VL: B1 VL
B9: AB200-(2Vk31)_R2-VH-v17 (Fab, V domains shown)
VH: B3 VH with H55Q, E62Q, V101I, Y102F
VL: B1 VL
B10: AB200-(2Vk31)_R2-VH-v66 (Fab, V domains shown)
VH: B3 VH with S28T, S54I, D57T, A61N, E62Q, F64Y, V101I, Y102F
VL: B1 VL
B11: AB200-(2Vk31)_R2-VH-v21 (Fab, V domains shown)
VH: B3 VH with S28T, A50G, E62Q, V101I, Y102F
VL: B1 VL
B12: AB200-(2Vk31)_R2-VH-v50 (Fab, V domains shown)
VH: B3 VH with S28T, F29Y, A50G, S54I, Y59N, A61N, E62Q, V101I, D109E
VL: B1 VL
B13: AB200-(2Vk31)_R2-VH-v42 (Fab, V domains shown)
VH: B3 VH with S28T, S30T, A50G, S54I, A61N, E62Q, F64Y, V101I, Y102F
VL: B1 VL
B14: AB200-(2Vk31)_R2-VH-v47 (Fab, V domains shown)
VH: B3 VH with S28T, F29Y, S54I, D57T, A61N, V101I, Y102F
VL: B1 VL
B15: AB200-(2Vk31)_R2-VH-v57 (Fab, V domains shown)
VH: B3 VH with S28T, A50G, S54I, D57T, A61N, E62Q, K74E
VL: B1 VL
B16: AB200-(2Vk31)_R2-VH-v73 (Fab, V domains shown)
VH: B3 VH with S28T, S54I, E62Q, F64Y
VL: B1 VL
B17: AB200-(2Vk31)_R2-VH-v2 (Fab, V domains shown)
VH: B3 VH with S28T, S30T, D57T, Y59N, A61N, E62Q
VL: B1 VL
B18: AB200-(2Vk31)_R2-VH-v34 (Fab, V domains shown)
VH: B3 VH with S28T, H55Q, E62Q, V101I, D109E
VL: B1 VL
B19: AB200-(2Vk31)_R2-VH-v25 (Fab, V domains shown)
VH: B3 VH with S28T, D57T, Y59N, A61N, E62Q, V101I, Y105F
VL: B1 VL
B20: AB200-(2Vk30)_R2-VH-v4 (Fab, V domains shown)
VH: B3 VH with S28T, S30T, Y59N, E62Q, V101I, D109E
VL: B1 VL with F91Y, L94I
B21: AB200-(2Vk30)_R2-VH-v10 (Fab, V domains shown)
VH: B3 VH with S28T, F29Y, Y59N, A61N, E62Q, F64Y, V101I, D109E
VL: B1 VL with F91Y, L94I
B22: AB200-R1a-Fab_Vk35 (Fab, V domains shown)
VH: B3 VH with S28T, I34M, S54G, A61N, E62Q, S66G, V101I, I108L
VL: DIQMTQSPSSLSASVGDRVTITCSASQDLSNYLNWYQQKPGKAPKLLIYYTSNLHSGVPSRFSGSGSGTDFTLTISSLQPEDFATYYCQQYKKIPWTFGQGTKLEIKR
B23: AB200-R1a-Fab_Vk33 (Fab, V domains shown)
VH: B3 VH with S28T, I34M, S54G, A61N, E62Q, S66G, V101I, I108L
VL: B22 VL with L29I, N31S, Y50F, Y91S, K92R, I94L
B24: AB200-R1a-Fab_Vk15 (Fab, V domains shown)
VH: B3 VH with S28T, I34M, S54G, A61N, E62Q, S66G, V101I, I108L
VL: B22 VL with Q27H, D28E, L29I, N53S, K92R, I94L
B25: AB200-R1a-Fab_Vk25 (Fab, V domains shown)
VH: B3 VH with S28T, I34M, S54G, A61N, E62Q, S66G, V101I, I108L
VL: B22 VL with L29I, Y50A, T51A, K92R
B26: AB200-R1a-Fab_Vk16 (Fab, V domains shown)
VH: B3 VH with S28T, I34M, S54G, A61N, E62Q, S66G, V101I, I108L
VL: B22 VL with L29I, S30T, Y50A, Q90E, K92R, I94L
B27: AB200-R1a-Fab_Vk30 (Fab, V domains shown)
VH: B3 VH with S28T, I34M, S54G, A61N, E62Q, S66G, V101I, I108L
VL: B22 VL with S24T, D28S, L29I, L33I, K92R, I94L
B28: AB200-R1a-Fab_Vk12 (Fab, V domains shown)
VH: B3 VH with S28T, I34M, S54G, A61N, E62Q, S66G, V101I, I108L
VL: B22 VL with L29I, T51A, S52T, K92R, K93R, I94L
B29: AB200_Fab (D99D) (Fab, V domains shown)
VH: B3 VH with S28T, I34M, S54G, A61N, E62Q, S66G, V101I, H103D, I108L
VL: B22 VL with L29I, K92R, I94L
B30: AB200_Fab + D99H (Fab, V domains shown)
VH: B3 VH with S28T, I34M, S54G, A61N, E62Q, S66G, V101I, I108L
VL: B22 VL with L29I, K92R, I94L
notes: also called AB200_D99H; D99H variant
B31: AB200_Fab + D99T (Fab, name in Kabat numbering, V domains shown)
VH: B3 VH with S28T, I34M, S54G, A61N, E62Q, S66G, V101I, H103T, I108L
VL: B22 VL with L29I, K92R, I94L
B32: AB200_Fab + D99E (Fab, name in Kabat numbering, V domains shown)
VH: B3 VH with S28T, I34M, S54G, A61N, E62Q, S66G, V101I, H103E, I108L
VL: B22 VL with L29I, K92R, I94L
B33: AB200_Fab + D99N (Fab, name in Kabat numbering, V domains shown)
VH: B3 VH with S28T, I34M, S54G, A61N, E62Q, S66G, V101I, H103N, I108L
VL: B22 VL with L29I, K92R, I94L
notes: also called D99N variant
B34: AB200_Fab + D99S (Fab, name in Kabat numbering, V domains shown)
VH: B3 VH with S28T, I34M, S54G, A61N, E62Q, S66G, V101I, H103S, I108L
VL: B22 VL with L29I, K92R, I94L
B35: AB200_Fab + D99Q (Fab, name in Kabat numbering, V domains shown)
VH: B3 VH with S28T, I34M, S54G, A61N, E62Q, S66G, V101I, H103Q, I108L
VL: B22 VL with L29I, K92R, I94L

The binders below were run against T2, extracellular domain of rhesus monkey BCMA (rhesus monkey, UniProt F7FFA0 1-53) (assay: Octet BLI; Fab 200 nM).
T2 construct: extracellular domain; also called RhBCMA
T2 sequence (F7FFA0 entry or part of it): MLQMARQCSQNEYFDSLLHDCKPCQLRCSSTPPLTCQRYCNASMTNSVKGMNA

| Binder | Kd [nM] |
| --- | --- |
| B1 | 448 |
| B2 | 216 |
| B3 | 14.9 |
| B4 | 50.4 |
| B5 | 540 |
| B6 | 10.4 |
| B7 | 9.34 |
| B8 | 18.4 |
| B9 | 16.9 |
| B10 | 20.8 |
| B11 | 29.7 |
| B12 | 196 |
| B13 | 23.5 |
| B14 | 15.9 |
| B15 | 20.8 |
| B16 | 7.72 |
| B17 | 55.6 |
| B18 | 18 |
| B19 | 57.3 |

Each binder was assayed against T1, extracellular domain of human BCMA (assay: Octet BLI; Fab 200 nM).

| Binder | Kd [nM] |
| --- | --- |
| B1 | 241 |
| B2 | 126 |
| B3 | 3.55 |
| B4 | 46 |
| B5 | 319 |
| B6 | 3.65 |
| B7 | 6.02 |
| B8 | 13 |
| B9 | 5.77 |
| B10 | 13.7 |
| B11 | 10.7 |
| B12 | 90 |
| B13 | 4.33 |
| B14 | 17.7 |
| B15 | 11.9 |
| B16 | 1.32 |
| B17 | 25 |
| B18 | 5.13 |
| B19 | 32.8 |

Biological target: T2, extracellular domain of rhesus monkey …
Experiment: Octet BLI; Fab 200 nM
Remark: another data set of the same source

| Binder | Kd [nM] |
| --- | --- |
| B20 | 125 |
| B21 | 330 |

Biological target: T1, extracellular domain of human BCMA
Experiment: Octet BLI; Fab 200 nM
Remark: another data set of the same source

| Binder | Kd [nM] |
| --- | --- |
| B20 | 46.4 |
| B21 | 85.8 |

Biological target: T2, extracellular domain of rhesus monkey …
Experiment: Octet BLI; Fab 200 nM
Remark: another data set of the same source

| Binder | Kd [nM] |
| --- | --- |
| B22 | 18.9 |
| B23 | 37.4 |
| B24 | 9.71 |
| B25 | 13.6 |
| B26 | 12.9 |
| B27 | 4.78 |
| B28 | 16.8 |

Biological target: T1, extracellular domain of human BCMA
Experiment: Octet BLI; Fab 200 nM
Remark: another data set of the same source

| Binder | Kd [nM] |
| --- | --- |
| B22 | 7.3 |
| B23 | 19.5 |
| B24 | 2.93 |
| B25 | 3.44 |
| B26 | 3.18 |
| B27 | 1.56 |
| B28 | 4.89 |

Biological target: T2, extracellular domain of rhesus monkey …
Experiment: Octet BLI; Fab 200 nM
Remark: another data set of the same source

| Binder | Kd [nM] | koff [s⁻¹] | kon [M⁻¹ s⁻¹] |
| --- | --- | --- | --- |
| B29 | 5.89 | 0.00118 | 200000 |
| B30 | 5.7 | 0.00105 | 180000 |
| B31 | 11.5 | 0.00099 | 90000 |
| B32 | 13.6 | 0.00219 | 160000 |
| B33 | 3.32 | 0.00066 | 200000 |
| B34 | 9.75 | 0.00114 | 120000 |
| B35 | 7.63 | 0.0014 | 180000 |

Biological target: T1, extracellular domain of human BCMA
Experiment: Octet BLI; Fab 200 nM
Remark: another data set of the same source

| Binder | Kd [nM] | koff [s⁻¹] | kon [M⁻¹ s⁻¹] |
| --- | --- | --- | --- |
| B29 | 3.45 | 0.00058 | 170000 |
| B30 | 2.08 | 0.00037 | 180000 |
| B31 | 3.72 | 0.0003 | 80000 |
| B32 | 5.92 | 0.00091 | 150000 |
| B33 | 1.23 | 0.00023 | 190000 |
| B34 | 3.86 | 0.00044 | 110000 |
| B35 | 3.06 | 0.00053 | 170000 |
